Drawing on article PMC11074293, this text covers stoichiometry N (CUL3-RBX1 per KLHL22^1–178 dimer) and stoichiometry N (CUL3-RBX1 per KLHL12^1–161 dimer) for two substances.

For assay [1], the target named is KLHL22^1–178 (human) (UniProt Q53GT1). The experiment in a line: SEC-MALS; WTC-015S5 column, low salt buffer; complexes at 2 mg/ml, KLHL22^1–178 and KLHL12^1–161 alone at 3 mg/ml. For orientation: SEC sorts molecules by how far they enter the pores of the column.
Assay [2] concerns the target KLHL12^1–161 (human) (UniProt Q53G59). The description is as above.

Chain of KLHL22^1–178 (human) (Q53GT1 1-178): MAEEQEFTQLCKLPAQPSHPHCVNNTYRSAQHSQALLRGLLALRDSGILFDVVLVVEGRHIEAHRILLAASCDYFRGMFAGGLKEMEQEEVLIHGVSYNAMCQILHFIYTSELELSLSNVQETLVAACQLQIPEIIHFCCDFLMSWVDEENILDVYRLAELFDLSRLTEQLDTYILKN
Chain of CUL3^Δ1–24-RBX1 (Q13618 25-768, stated change not applied): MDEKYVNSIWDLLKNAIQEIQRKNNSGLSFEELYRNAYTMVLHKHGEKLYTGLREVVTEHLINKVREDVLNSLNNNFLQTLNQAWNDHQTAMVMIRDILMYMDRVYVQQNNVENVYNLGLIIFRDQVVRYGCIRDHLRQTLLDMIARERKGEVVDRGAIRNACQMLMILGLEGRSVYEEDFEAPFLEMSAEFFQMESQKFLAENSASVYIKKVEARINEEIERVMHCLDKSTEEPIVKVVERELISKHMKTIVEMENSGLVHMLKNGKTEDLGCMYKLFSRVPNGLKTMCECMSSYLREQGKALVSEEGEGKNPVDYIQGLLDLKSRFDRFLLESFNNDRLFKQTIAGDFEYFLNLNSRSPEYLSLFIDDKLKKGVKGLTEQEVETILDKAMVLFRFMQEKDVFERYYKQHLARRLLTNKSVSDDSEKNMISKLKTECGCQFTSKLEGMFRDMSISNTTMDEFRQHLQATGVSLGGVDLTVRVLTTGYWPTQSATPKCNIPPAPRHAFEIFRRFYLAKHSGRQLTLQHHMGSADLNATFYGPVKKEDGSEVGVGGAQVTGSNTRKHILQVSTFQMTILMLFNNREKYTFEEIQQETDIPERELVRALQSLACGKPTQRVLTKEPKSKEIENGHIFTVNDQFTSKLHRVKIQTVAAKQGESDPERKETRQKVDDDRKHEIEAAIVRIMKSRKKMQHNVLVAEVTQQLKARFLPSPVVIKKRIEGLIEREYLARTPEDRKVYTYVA
Chain of CUL3^Δ1–24-RBX1 (P62877 whole entry, stated change not applied): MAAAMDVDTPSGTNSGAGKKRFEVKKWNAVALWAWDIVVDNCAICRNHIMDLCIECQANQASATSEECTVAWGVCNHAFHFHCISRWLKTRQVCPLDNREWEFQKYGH
Chain of CUL3^WT-RBX1 (Q13618 whole entry): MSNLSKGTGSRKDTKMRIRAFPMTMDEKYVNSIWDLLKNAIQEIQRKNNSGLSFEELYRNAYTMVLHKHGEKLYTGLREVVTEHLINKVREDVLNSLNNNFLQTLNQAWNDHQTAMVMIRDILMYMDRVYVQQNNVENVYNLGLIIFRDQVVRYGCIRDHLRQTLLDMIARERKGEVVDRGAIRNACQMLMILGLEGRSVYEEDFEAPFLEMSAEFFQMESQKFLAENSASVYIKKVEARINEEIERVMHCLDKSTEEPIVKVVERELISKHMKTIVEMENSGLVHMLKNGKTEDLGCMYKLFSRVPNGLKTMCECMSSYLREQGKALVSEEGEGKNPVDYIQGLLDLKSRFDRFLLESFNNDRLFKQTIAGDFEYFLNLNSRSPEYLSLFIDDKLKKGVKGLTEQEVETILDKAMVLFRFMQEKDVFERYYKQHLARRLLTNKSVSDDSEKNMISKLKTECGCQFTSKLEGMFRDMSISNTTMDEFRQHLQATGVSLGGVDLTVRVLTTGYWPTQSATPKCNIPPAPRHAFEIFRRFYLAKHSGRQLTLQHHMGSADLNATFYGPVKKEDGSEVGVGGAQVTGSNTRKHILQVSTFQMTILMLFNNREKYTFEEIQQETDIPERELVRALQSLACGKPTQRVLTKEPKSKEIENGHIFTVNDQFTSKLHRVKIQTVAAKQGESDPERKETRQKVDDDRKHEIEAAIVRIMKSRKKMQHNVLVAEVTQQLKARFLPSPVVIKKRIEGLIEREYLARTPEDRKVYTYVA
Chain of CUL3^WT-RBX1 (P62877 whole entry): as the sequence (P62877 whole entry, stated change not applied) above
Chain of KLHL12^1–161 (human) (Q53G59 1-161): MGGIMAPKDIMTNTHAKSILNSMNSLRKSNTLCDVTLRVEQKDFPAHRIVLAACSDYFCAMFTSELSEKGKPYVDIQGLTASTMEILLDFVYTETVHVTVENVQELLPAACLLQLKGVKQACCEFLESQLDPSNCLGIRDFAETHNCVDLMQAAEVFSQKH

On to “CUL3^Δ1–24-RBX1 (from UniProt Q13618 25-768; P62877 1-108) (complex)”, for which, in assay [1], the stoichiometry N (CUL3-RBX1 per KLHL22^1–178 dimer) came out at 1. For the same substance, the stoichiometry N (CUL3-RBX1 per KLHL12^1–161 dimer) in assay [2] amounted to 1.

Take “CUL3^WT-RBX1 (from UniProt Q13618 1-768; P62877 1-108) (complex)”: the stoichiometry N (CUL3-RBX1 per KLHL22^1–178 dimer) in assay [1] turned out to be 2.
